# Patent US20120009181A1
# Target: human folate receptor 1 (FOLR1) (human)
substance,measurement,value
MorAb-003 (Farletuzumab) (antibody),EC50 of ADCC activity on IGROV-1 cells,0.16 ng/mL
